In patent US20230136228A1 one finds Factor to PEAK WT and MFI data, which are given here for one substance.

The target of assay [1] is human CEACAM5 (carcinoembryonic antigen, CEA), cell surface (human) (UniProt P06731). Put plainly: flow cytometry, MFI on transfected PEAK cells divided by MFI on WT PEAK cells. In general terms: In flow cytometry, cells or beads pass a laser one at a time.
Assay [2] concerns the target human CEACAM4 (human) (UniProt O75871). The assay is described as above.
Assay [3] has as its target human CEACAM3 (human) (UniProt P40198). The description is as above.
Assay [4] has as its target human CEACAM8 (human) (UniProt P31997). The assay is described as above.
Assay [5] concerns the target human CEACAM6 (human) (UniProt P40199). Described as above.
Assay [6] addresses human CEACAM1 (human) (UniProt P13688). The description is as above.
The target in assay [7] is human CEACAM5 (carcinoembryonic antigen, CEA), cell surface (human) (UniProt P06731). Put plainly: flow cytometry, transfected PEAK cells, equimolar to 10 mcg/ml full-size antibody.
Assay [8] has as its target human CEACAM4 (human) (UniProt O75871). The assay is described as above.
Assay [9] concerns the target human CEACAM3 (human) (UniProt P40198). The description is as above.
In assay [10] the target is human CEACAM8 (human) (UniProt P31997). Described as above.
Assay [11] addresses human CEACAM6 (human) (UniProt P40199). Described as above.
Assay [12] concerns the target human CEACAM1 (human) (UniProt P13688). Described as above.

Chain of human CEACAM4 (human) (O75871 36-244): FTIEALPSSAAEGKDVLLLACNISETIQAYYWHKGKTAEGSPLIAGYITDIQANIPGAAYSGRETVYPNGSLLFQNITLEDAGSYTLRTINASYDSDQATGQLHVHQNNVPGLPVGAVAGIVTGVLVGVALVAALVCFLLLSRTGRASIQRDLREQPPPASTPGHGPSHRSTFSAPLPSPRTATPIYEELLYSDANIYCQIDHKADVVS
Chain of human CEACAM8 (human) (P31997 35-320): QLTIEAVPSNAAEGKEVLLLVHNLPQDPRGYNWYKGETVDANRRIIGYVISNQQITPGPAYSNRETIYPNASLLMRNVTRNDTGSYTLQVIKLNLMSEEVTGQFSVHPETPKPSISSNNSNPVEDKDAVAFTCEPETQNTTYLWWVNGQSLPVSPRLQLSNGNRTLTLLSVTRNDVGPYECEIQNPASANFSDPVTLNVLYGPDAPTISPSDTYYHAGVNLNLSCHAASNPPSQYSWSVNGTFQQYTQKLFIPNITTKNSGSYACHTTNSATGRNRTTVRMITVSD
Chain of human CEACAM3 (human) (P40198 35-252): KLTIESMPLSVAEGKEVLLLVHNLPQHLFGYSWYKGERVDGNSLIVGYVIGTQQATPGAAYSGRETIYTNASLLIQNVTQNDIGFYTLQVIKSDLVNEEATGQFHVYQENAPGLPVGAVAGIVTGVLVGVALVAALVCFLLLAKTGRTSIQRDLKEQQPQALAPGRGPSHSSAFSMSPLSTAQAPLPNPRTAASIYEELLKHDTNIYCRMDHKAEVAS
Chain of human CEACAM5 (carcinoembryonic antigen, CEA), cell surface (human) (P06731 35-685 limits assumed): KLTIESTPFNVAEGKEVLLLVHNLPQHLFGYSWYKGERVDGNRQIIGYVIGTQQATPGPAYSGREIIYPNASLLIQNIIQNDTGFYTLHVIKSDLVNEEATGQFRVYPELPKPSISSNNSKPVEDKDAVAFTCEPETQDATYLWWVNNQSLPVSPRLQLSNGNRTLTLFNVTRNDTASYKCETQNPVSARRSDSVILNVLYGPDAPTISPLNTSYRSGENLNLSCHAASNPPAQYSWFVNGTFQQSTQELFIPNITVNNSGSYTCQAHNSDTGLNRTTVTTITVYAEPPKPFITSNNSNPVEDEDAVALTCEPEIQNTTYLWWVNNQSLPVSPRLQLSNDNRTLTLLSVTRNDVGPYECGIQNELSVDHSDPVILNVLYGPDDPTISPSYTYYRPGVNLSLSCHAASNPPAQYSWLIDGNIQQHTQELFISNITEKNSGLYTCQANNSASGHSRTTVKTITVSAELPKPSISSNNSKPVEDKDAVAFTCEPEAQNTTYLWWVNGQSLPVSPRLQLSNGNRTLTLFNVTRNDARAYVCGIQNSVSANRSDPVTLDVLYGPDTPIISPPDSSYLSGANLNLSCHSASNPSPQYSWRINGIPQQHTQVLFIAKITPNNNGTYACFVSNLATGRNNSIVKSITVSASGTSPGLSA
Chain of human CEACAM1 (human) (P13688 35-526): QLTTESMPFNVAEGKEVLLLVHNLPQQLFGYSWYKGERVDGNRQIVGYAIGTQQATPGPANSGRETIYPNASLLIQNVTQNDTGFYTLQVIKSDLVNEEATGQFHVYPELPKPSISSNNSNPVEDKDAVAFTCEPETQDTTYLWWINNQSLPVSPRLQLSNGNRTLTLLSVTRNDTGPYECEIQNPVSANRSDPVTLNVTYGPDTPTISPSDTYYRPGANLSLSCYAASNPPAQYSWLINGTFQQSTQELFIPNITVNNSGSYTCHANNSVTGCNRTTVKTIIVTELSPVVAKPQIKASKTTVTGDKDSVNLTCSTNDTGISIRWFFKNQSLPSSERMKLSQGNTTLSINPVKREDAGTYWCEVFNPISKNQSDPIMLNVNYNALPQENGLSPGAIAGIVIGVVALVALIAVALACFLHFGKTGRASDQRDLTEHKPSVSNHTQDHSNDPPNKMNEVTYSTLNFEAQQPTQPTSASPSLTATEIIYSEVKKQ
Chain of human CEACAM6 (human) (P40199 35-320): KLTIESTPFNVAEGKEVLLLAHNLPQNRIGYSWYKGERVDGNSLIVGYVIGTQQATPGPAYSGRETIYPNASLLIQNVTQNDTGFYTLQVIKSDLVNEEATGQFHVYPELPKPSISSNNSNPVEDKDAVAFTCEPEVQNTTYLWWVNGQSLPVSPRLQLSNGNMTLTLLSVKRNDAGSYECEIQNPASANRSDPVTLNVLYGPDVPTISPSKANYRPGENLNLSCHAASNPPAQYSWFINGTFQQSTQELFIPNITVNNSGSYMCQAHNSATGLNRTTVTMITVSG

MEDI-565 BiTE (bispecific antibody): the Factor to PEAK WT in [1] came to 15.7 fold; with human CEACAM4 (human) [2], 1.1 fold; with human CEACAM3 (human) [3], 0.8 fold; with human CEACAM8 (human) [4], 20.4 fold; with human CEACAM6 (human) [5] it was 1.6 fold; with human CEACAM1 (human) [6] it was 1.2 fold. The MFI is 18400 MFI in assay [7]; 1340 MFI in the assay with human CEACAM4 (human) [8]; 943 MFI with human CEACAM3 (human) [9]; 24000 MFI with human CEACAM8 (human) [10]; 1830 MFI in the assay with human CEACAM6 (human) [11]; 1470 MFI with human CEACAM1 (human) [12].
